Substitutions are numbered along the chain they refer to. Values belong to the binder of their own block, whether it stands above or below them.
Experiments:
Human PTK7 = molecular target: T1, Human PTK7 (human, UniProt Q13308 31-1070); assay: cell-based or functional assay
T1 sequence: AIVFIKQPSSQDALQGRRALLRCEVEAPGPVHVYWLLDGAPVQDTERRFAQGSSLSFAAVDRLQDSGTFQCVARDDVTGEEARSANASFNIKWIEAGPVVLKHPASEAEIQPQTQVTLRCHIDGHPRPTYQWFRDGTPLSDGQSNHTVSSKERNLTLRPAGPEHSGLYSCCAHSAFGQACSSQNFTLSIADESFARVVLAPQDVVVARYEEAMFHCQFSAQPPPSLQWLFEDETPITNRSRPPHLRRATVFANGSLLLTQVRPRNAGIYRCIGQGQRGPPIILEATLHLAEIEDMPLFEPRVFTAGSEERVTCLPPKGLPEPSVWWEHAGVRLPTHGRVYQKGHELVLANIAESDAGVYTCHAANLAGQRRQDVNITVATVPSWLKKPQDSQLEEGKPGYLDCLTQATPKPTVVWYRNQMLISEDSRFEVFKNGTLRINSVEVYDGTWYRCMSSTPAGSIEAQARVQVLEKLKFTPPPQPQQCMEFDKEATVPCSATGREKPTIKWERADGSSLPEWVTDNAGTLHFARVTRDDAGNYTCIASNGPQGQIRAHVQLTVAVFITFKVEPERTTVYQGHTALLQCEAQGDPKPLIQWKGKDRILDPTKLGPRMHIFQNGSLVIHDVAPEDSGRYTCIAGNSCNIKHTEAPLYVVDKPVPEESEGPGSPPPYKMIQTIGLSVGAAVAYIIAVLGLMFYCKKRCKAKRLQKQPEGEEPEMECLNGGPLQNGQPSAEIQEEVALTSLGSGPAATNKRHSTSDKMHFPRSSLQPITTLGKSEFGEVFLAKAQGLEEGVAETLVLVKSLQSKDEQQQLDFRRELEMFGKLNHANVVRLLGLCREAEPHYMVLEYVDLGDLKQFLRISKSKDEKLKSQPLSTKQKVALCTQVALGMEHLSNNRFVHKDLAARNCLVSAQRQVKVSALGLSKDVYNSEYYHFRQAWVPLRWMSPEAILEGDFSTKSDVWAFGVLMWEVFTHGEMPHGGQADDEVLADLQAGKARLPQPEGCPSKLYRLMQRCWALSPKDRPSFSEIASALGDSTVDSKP

[1] = molecular target: T2, Human PTK7/CCK4 Protein, His Tag, Acro Biosystems PT7-H52H3 (human, UniProt Q13308 31-704); assay: BLI, antibody on anti-human Fc sensor, 50 nM PTK7
T2 construct: bought protein; also called Human PTK7 Protein, His Tag, Acro Biosystems; not shown: His tag
T2 sequence: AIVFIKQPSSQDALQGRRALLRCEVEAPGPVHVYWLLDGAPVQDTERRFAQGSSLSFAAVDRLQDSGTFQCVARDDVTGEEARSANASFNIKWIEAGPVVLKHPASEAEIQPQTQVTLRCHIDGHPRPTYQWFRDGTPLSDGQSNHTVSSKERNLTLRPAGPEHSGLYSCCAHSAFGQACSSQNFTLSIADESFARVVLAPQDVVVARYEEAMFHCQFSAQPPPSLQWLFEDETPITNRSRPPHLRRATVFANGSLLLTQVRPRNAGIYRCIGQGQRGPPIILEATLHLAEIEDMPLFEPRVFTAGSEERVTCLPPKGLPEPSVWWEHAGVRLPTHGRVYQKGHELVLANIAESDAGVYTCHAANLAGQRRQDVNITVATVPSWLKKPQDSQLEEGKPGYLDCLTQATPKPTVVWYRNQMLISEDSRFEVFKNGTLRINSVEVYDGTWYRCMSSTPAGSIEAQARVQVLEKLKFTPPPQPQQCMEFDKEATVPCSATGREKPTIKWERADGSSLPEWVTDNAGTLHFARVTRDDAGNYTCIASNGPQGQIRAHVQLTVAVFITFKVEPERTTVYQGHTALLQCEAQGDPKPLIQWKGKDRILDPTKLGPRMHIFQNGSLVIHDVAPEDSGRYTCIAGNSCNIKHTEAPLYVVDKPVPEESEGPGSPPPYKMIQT

B1: MYT10952 (antibody, V domains shown)
VH: EVQLVESGGGLVQPGGSLRLSCTASGHSLSSYAMGWVRQAPGKGLEWVGFINAGGNTYYANWAKGRFTISRDTSKNTVYLQMNSLRAEDTAVYFCARRYSRASGWYDLWGQGTLVTVSS
VL: EIVMTQSPSTLSASVGDRVIITCQASQSISSYLAWYQQKPGKAPKLLIYAASTLASGVPSRFSGSGSGAEFTLTISSLQPDDFATYYCQSYSYSSGIDYGDVFGQGTKLTVL
Internalization, FOW @ 25 nM (fold over the wildtype, parental antibody) (Human PTK7): 1.06 fold over parental antibody

B2: MYT10989 (antibody, V domains shown)
VH: B1 VH with H27F, L108H
VL: B1 VL
Internalization, FOW @ 25 nM (fold over the wildtype, parental antibody) (Human PTK7): 1.09 fold over parental antibody

B3: MYT11005 (antibody, V domains shown)
VH: B1 VH with H27F
VL: B1 VL with S52H
Internalization, FOW @ 25 nM (fold over the wildtype, parental antibody) (Human PTK7): 1.05 fold over parental antibody

B4: MYT10955 (antibody, V domains shown)
VH: B1 VH with H27F, S30H
VL: B1 VL
Internalization, FOW @ 25 nM (fold over the wildtype, parental antibody) (Human PTK7): 1.05 fold over parental antibody

B5: MYT11017 (antibody, V domains shown)
VH: B1 VH with H27F
VL: B1 VL with G96H
Internalization, FOW @ 25 nM (fold over the wildtype, parental antibody) (Human PTK7): 1.2 fold over parental antibody

B6: MYT10899 (antibody, V domains shown)
VH: EVQLVESGGGLVQPGGSLRLSCTASGFSLSNYVMNWVRQAPGKGLEWVGIIDSHGSTYYASWAKGRFTISRDTSKNTVYLQMNSLRAEDTAVYFCARGLYLWGQGTLVTVSS
VL: EIVMTQSPSTLSASVGDRVIITCQSSQSVYNNNLLAWYQQKPGKAPKLLIYYTSNLASGVPSRFSGSGSGAEFTLTISSLQPDDFATYYCQGGYNGNIYAFGQGTKLTVL
Internalization, FOW @ 25 nM (fold over the wildtype, parental antibody) (Human PTK7): 1.14 fold over parental antibody

B7: MYT10917 (antibody, V domains shown)
VH: B6 VH with H54S, F94Y
VL: B6 VL
Internalization, FOW @ 25 nM (fold over the wildtype, parental antibody) (Human PTK7): 1.29 fold over parental antibody

B8: MYT11352 (antibody, V domains shown)
VH: EVQLVESGGGLVQPGGSLRLSCTASGIDLSNYAVIWVRQAPGKGLEWVGIIYHYDTTYYANWAKGRFTISRDTSKNTVYLQMNSLRAEDTAVYFCARSFSDISDLIKLWGQGTLVTVSS
VL: EIVMTQSPSTLSASVGDRVIITCQASQSLYNNKDLAWYQQKPGKAPKLLIYEASKLASGVPSRFSGSGSGAEFTLTISSLQPDDFATYYCLGEFSCGSGDCLAFGQGTKLTVL
notes: IgG
binding result [1]: binds

B9: MYT11392 (antibody, V domains shown)
VH: B8 VH with H53T
VL: B8 VL with K33H
notes: IgG
binding result [1]: binds

B10: MYT11354 (antibody, V domains shown)
VH: B8 VH with H53T, D55H
VL: B8 VL
notes: IgG
binding result [1]: binds

B11: MYT11393 (antibody, V domains shown)
VH: B8 VH with H53T
VL: B8 VL with D34H
notes: IgG
binding result [1]: binds

B12: MYT11396 (antibody, V domains shown)
VH: B8 VH with H53T
VL: B8 VL with E52H
notes: IgG
binding result [1]: binds

B13: MYT11394 (antibody, V domains shown)
VH: B8 VH with H53T
VL: B8 VL with L35H
notes: IgG
binding result [1]: binds

B24: MYT11033 (antibody, V domains shown)
VH: EVQLVESGGGLVQPGGSLRLSCTASGLSLSSHWMSWVRQAPGKGLEWVGVISAGGNTYYANWAKGRFTISRDTSKNTVYLQMNSLRAEDTAVYFCARGDDGYTNAAYVSNLWGQGTLVTVSS
VL: EIVMTQSPSTLSASVGDRVIITCQASQSISSWLSWYQQKPGKAPKLLIYKASTLASGVPSRFSGSGSGAEFTLTISSLQPDDFATYYCQSYFDSTTIAFGQGTKLTVL
Internalization, FOW @ 25 nM (fold over the wildtype, parental antibody) (Human PTK7): 1.19 fold over parental antibody

B25: MYT11063 (antibody, V domains shown)
VH: B24 VH with H32Y, A106H
VL: B24 VL
Internalization, FOW @ 25 nM (fold over the wildtype, parental antibody) (Human PTK7): 2.04 fold over parental antibody

B26: MYT11056 (antibody, V domains shown)
VH: B24 VH with H32Y, D99H
VL: B24 VL
Internalization, FOW @ 25 nM (fold over the wildtype, parental antibody) (Human PTK7): 1.1 fold over parental antibody

B27: MYT11058 (antibody, V domains shown)
VH: B24 VH with H32Y, G101H
VL: B24 VL
Internalization, FOW @ 25 nM (fold over the wildtype, parental antibody) (Human PTK7): 1.26 fold over parental antibody

B28: MYT11053 (antibody, V domains shown)
VH: B24 VH with H32Y, A96H
VL: B24 VL
Internalization, FOW @ 25 nM (fold over the wildtype, parental antibody) (Human PTK7): 1.25 fold over parental antibody

B29: MYT11059 (antibody, V domains shown)
VH: B24 VH with H32Y, Y102H
VL: B24 VL
Internalization, FOW @ 25 nM (fold over the wildtype, parental antibody) (Human PTK7): 1.27 fold over parental antibody

More lines, now with the values ahead:

binding result [1]: binds
B14: MYT11398 (antibody, V domains shown)
VH: B8 VH with H53T
VL: B8 VL with S54H
notes: IgG

binding result [1]: binds
B15: MYT11390 (antibody, V domains shown)
VH: B8 VH with H53T
VL: B8 VL with N31H
notes: IgG

binding result [1]: binds
B16: MYT11376 (antibody, V domains shown)
VH: B8 VH with H53T, K107H
VL: B8 VL
notes: IgG

binding result [1]: binds
B17: MYT11356 (antibody, V domains shown)
VH: B8 VH with H53T, T57H
VL: B8 VL
notes: IgG

binding result [1]: binds
B18: MYT11363 (antibody, V domains shown)
VH: B8 VH with H53T, K64H
VL: B8 VL
notes: IgG

binding result [1]: binds
B19: MYT11410 (antibody, V domains shown)
VH: B8 VH with H53T
VL: B8 VL with G99H
notes: IgG

binding result [1]: binds
B20: MYT11409 (antibody, V domains shown)
VH: B8 VH with H53T
VL: B8 VL with S98H
notes: IgG

binding result [1]: binds
B21: MYT11355 (antibody, V domains shown)
VH: B8 VH with H53T, T56H
VL: B8 VL
notes: IgG

binding result [1]: binds
B22: MYT11369 (antibody, V domains shown)
VH: B8 VH with H53T, S100H
VL: B8 VL
notes: IgG

binding result [1]: binds
B23: MYT11357 (antibody, V domains shown)
VH: B8 VH with H53T, Y58H
VL: B8 VL
notes: IgG
